The values below come from article PMC6327041, “Histone H3 binding to the PHD1 domain of histone demethylase KDM5A enables active site remodeling” (Nature Communications, 2019).

This test concerns the target KDM5A PHD1 domain, S287-K347 (UniProt P29375). The test can be described thus: competition fluorescence polarization. The settings on record: reference: unmodified H3 10mer peptide. (In general: Polarisation of emitted light reports the rotation of a fluorescent probe.)

Sequence of KDM5A PHD1 domain, S287-K347 (P29375 whole entry, looked up, the tested form may be a part): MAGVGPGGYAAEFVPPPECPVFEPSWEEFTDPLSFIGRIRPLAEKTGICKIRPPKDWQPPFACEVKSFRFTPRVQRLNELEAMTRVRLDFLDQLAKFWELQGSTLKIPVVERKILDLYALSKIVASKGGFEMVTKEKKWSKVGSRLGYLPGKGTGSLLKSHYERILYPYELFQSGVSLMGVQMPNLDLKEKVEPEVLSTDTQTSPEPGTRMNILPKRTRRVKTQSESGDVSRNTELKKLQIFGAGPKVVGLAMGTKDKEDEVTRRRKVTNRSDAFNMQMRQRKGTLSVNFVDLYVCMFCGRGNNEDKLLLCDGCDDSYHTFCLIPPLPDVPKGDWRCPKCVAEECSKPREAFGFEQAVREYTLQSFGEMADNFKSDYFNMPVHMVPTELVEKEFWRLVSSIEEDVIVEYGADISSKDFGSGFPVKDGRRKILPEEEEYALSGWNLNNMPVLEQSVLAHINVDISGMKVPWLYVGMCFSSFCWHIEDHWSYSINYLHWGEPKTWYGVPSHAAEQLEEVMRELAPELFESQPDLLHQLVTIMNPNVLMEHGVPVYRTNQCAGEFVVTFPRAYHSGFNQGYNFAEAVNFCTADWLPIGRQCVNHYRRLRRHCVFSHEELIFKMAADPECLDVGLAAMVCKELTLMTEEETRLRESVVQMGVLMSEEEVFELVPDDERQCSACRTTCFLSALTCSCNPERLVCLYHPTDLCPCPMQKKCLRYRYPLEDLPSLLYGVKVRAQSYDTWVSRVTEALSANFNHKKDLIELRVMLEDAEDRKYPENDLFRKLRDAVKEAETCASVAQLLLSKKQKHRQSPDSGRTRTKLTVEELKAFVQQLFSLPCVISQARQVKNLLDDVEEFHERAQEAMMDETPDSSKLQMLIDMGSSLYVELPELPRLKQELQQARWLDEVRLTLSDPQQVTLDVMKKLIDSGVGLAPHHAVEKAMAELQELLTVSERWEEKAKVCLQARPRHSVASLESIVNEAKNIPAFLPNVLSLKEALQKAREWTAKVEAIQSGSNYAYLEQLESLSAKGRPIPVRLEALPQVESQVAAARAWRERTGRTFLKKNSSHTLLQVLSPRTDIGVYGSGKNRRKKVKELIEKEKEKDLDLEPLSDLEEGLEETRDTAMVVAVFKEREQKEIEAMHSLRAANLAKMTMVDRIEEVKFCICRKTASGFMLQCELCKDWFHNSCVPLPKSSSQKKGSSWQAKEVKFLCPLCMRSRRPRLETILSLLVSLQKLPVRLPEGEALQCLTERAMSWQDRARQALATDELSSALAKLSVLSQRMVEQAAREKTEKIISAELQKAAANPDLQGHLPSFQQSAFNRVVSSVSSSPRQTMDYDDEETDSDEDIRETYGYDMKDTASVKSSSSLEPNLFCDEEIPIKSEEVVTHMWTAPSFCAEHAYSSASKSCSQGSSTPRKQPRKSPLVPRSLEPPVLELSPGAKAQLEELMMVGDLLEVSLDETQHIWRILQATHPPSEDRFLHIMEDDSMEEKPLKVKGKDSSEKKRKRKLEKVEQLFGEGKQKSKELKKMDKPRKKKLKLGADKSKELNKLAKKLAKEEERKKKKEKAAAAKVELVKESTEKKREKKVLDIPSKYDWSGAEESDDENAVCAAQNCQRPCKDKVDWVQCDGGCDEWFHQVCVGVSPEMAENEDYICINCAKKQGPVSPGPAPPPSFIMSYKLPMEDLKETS

For the substance “histone H3 (N-terminal tail peptide) N-terminal tail 10mer, 1-10 (from UniProt P68431) H3T6ph 10mer peptide”, for the setting “sites T6”, the “binding against the reference” value was “weaker”.

As to “histone H3 (N-terminal tail peptide) N-terminal tail 10mer, 1-10 (from UniProt P68431) H3T3ph 10mer peptide”, the “binding against the reference” value (sites T3) is “weaker”.
